Target: mouse NMDA receptor NR1 subunit, P35438

B1: rt-PA (alteplase), recombinant human t-PA (protein)
chain: SYQVICRDEKTQMIYQQHQSWLRPVLRSNRVEYCWCNSGRAQCHSVPVKSCSEPRCFNGGTCQQALYFSDFVCQCPEGFAGKCCEIDTRATCYEDQGISYRGTWSTAESGAECTNWNSSALAQKPYSGRRPDAIRLGLGNHNYCRNPDRDSKPWCYVFKAGKYSSEFCSTPACSEGNSDCYFGNGSAYRGTHSLTESGASCLPWNSMILIGKVYTAQNPSAQALGLGKHNYCRNPDGDAKPWCHVLKNRRLTWEYCDVPSCSTCGLRQYSQPQFRIKGGLFADIASHPWQAAIFAKHRRSPGERFLCGGILISSCWILSAAHCFQERFPPHHLTVILGRTYRVVPGEEEQKFEVEKYIVHKEFDDDTYDNDIALLQLKSDSSRCAQESSVVRTVCLPPADLQLPDWTECELSGYGKHEALSPFYSERLKEAHVRLYPSSRCTSQHLLNRTVTDNMLCAGDTRSGGPQANLHDACQGDSGGPLVCLNDGRMTLVGIISWGLGCGQKDVPGVYTKVTNYLDWIRDNMRP
- net integrated increase in [Ca2+]i evoked by NMDA after 15 min exposure to t-PA (20 µg/ml): the net integrated increase in [Ca^2+]i (area under the curve expressed in arbitrary units) was enhanced by 37%

From patent US20130058939
